Results on ten molecules are retold here after patent publication US20150093336A1 (VIB VZW, published 2015).

The target in test [1] is T1, Recombinant human MMR (R&D systems) (human, UniProt P22897 19-1383).
T1 construct: Antigen of the PE-ELISA and the SPR; also called hMMR; recombinant hMMR
T1 sequence: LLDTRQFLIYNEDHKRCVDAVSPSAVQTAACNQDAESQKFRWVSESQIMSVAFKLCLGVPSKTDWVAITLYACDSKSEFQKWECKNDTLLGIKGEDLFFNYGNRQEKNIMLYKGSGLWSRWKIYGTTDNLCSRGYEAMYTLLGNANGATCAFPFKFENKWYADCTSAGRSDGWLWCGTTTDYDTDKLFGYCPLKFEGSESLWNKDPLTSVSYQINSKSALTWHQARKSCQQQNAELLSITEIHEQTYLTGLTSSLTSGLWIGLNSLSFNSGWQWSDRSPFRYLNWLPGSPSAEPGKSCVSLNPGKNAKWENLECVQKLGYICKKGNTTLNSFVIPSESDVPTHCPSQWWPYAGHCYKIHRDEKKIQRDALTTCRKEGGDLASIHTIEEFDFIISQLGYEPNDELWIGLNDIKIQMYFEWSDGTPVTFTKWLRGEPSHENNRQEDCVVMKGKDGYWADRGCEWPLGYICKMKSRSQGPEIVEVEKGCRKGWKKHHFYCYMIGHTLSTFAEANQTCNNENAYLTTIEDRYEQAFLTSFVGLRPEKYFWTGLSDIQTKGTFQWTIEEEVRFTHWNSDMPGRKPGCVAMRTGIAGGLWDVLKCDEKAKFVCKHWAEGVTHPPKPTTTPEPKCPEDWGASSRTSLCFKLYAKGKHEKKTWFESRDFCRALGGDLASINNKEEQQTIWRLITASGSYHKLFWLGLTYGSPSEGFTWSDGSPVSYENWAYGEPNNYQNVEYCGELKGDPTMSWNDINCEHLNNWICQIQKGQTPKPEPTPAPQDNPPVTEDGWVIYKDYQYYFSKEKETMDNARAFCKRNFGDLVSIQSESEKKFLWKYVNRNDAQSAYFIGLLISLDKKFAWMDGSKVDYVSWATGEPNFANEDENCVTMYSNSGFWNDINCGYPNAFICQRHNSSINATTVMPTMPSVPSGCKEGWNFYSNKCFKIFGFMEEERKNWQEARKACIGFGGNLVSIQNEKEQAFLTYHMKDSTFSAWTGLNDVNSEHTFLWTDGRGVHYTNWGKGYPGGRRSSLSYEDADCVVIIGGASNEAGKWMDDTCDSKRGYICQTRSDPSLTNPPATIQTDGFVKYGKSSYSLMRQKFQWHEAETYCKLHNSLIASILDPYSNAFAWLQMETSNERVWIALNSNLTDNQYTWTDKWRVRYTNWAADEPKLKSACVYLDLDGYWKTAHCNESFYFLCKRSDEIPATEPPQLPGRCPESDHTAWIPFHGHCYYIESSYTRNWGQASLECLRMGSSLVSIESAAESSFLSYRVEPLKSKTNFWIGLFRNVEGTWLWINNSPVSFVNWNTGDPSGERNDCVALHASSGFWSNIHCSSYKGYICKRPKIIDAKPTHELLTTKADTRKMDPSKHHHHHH
Nature of the test: SPR, BIAcore T100; human MMR on CM5 chip, sdAb as analyte. The protocol:
(§1) Affinity analysis was performed using a BIAcore™ T100 (GE Healthcare) with HEPES-buffered saline running buffer (10 mM HEPES with 0.15 M NaCl, 3.4 mM EDTA and 0.005% surfactant P20 at pH 7.4). MRR was immobilized on a CM5 chip in acetate buffer 50 mM (pH 5.0), resulting in 2100 RU MMR coated on the chip. A second channel on the same chip was activated/deactivated in a similar way and served as a negative control. The MMR sdAbs were used as analytes in eleven different concentrations, ranging from 1 to 2000 nM, at a flow rate of […]. Glycine-HCl 50 mM (pH 2.0) was used for elution. The kinetic and equilibrium parameters (kd, ka and KD) values were calculated from the combined sensogram of all concentrations using BIAcore™ T100 evaluation software 2.02 (GE Healthcare).
(§2) The binding characteristics and affinity of selected Nbs towards the recombinant hMMR and recombinant mMMR antigen was examined in further detail using surface plasmon resonance. A combined sensogram was recorded for each Nb (example for NbhmMMRm3.49 in FIG. 5) and the kinetic and equilibrium parameters (kd, ka and KD) values were calculated (Table 4 and Table 5). Most but not all results on binding to mouse or human rMMR obtained via this SPR analysis are in agreement with the results obtained by PE-ELISA.
(In general: Surface plasmon resonance follows binding to a sensor surface in real time, without labels.)

Test [2] addresses T2, Recombinant mouse MMR (R&D systems) (mouse, UniProt Q61830 20-1388).
T2 construct: Antigen of the PE-ELISA and the SPR; also called mMMR; recombinant mMMR
T2 sequence: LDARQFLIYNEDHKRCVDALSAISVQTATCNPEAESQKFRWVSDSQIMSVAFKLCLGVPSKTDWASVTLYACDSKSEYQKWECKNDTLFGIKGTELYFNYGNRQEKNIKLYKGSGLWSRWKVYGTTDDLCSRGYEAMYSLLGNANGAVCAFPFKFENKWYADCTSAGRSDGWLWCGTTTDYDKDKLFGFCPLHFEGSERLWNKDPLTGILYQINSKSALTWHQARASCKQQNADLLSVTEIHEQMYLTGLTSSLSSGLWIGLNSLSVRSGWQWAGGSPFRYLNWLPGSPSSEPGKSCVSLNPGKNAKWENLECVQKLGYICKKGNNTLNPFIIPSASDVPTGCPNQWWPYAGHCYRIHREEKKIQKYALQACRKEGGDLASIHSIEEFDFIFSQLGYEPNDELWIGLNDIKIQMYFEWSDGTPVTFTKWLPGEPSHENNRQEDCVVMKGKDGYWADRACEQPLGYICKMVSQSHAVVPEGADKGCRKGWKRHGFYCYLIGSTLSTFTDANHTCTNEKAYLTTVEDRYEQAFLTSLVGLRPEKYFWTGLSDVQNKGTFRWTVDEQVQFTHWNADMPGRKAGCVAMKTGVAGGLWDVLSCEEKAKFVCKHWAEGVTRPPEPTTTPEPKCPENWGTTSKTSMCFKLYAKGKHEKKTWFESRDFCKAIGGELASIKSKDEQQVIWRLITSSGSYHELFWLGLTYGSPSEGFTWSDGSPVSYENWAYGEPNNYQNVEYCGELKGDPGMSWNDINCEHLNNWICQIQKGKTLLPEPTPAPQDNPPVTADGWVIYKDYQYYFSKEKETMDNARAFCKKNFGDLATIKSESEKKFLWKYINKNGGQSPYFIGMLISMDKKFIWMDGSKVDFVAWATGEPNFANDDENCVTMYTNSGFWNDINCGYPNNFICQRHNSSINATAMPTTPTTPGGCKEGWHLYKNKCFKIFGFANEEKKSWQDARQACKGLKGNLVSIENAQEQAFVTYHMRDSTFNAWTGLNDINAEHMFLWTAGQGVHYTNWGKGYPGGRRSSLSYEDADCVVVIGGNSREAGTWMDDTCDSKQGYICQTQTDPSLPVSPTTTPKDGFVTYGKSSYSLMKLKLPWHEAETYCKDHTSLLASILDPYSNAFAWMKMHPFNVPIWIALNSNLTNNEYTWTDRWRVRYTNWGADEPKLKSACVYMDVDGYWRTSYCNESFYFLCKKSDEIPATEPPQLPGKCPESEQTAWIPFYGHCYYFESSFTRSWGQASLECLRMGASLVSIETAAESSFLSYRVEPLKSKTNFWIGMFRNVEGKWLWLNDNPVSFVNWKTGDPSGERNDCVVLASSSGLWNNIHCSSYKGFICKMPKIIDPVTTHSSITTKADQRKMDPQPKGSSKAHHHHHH
Nature of the test: SPR, BIAcore T100; mouse MMR on CM5 chip, sdAb as analyte. The protocol: as §1, §2

B1: NbhmMMRm26.70 (VHH)
VHH: QVQLQESGGGLVQPGGSLRLSCTASGFPFSSAPMSWVRQAPGKELEWVSYIGYTGTITDYANSVKGRFTISRDNAKNRLYLQMNSLKPEDTAVYFCAQGYARLIADSDLVRGQGTQVTVSS
notes: Produced from pMECS with C-terminal HA and 6xHis tag
B1: in test [1], the Kd worked out at 13 nM, the off-rate constant (koff) worked out at 0.0073 s⁻¹ and the kon was determined as 580000 M⁻¹ s⁻¹. Besides, in test [2], the Kd turned out to be 1.9 nM, the koff stood at 0.0013 s⁻¹ and the kon came to 690000 M⁻¹ s⁻¹.

B2: NbhMMRm5.38 (VHH)
VHH: QVQLQESGGGLVQAGGSLRLSCAASGFTDDDYDIGWFRQAPGKEREGVSCISSSDGSTYYADSVKGRFTISSDNAKNTVYLQMNSLKPEDTAVYYCAADFFRWDSGSYYVRGCRHATYDYWGQGTQVTVSS
notes: Produced from pMECS with C-terminal HA and 6xHis tag; also called NbhmMMRm5.38; Nb5.38
Take B2: in test [1], the Kd stood at 3.3 nM, the koff is 0.00066 s⁻¹ and the on-rate constant (kon) is 200000 M⁻¹ s⁻¹. Further, in test [2], the Kd stood at 25 nM, the koff was 0.0033 s⁻¹ and the kon amounted to 130000 M⁻¹ s⁻¹.

B3: NbhMMRm15.43 (VHH)
VHH: QVQLQESGGTLVQPGGSLRLSCAASGSTFSINNMGWYRQAPGKQRELVAGITGGNTHYADSVKGRFTISRDNAKNTMYLQMNGLKPEDTAVYYCNANWGAYWGQGTQVTVSS
notes: as for B1
Regarding B3, in test [1], the Kd was determined as 270 nM, the koff worked out at 0.0059 s⁻¹ and the kon came to 22000 M⁻¹ s⁻¹. Moreover, in test [2], the Kd amounted to 44 nM, the koff came to 0.0013 s⁻¹ and the kon was 29000 M⁻¹ s⁻¹.

B4: NbhmMMRm15.49 (VHH)
VHH: QVQLQESGGGLVQAGGSLRLSCAASGSTFSINNMGWYRQAPGKQRELVAGITGGNTHYADSVKGRFTISRDNAKNTMYLQMNSLKPEDTAVYYCNANWGAYWGQGTQVTVSS
notes: as for B1
As for B4, in test [1], the dissociation constant (Kd) turned out to be 290 nM, the koff was determined as 0.0061 s⁻¹ and the kon is 21000 M⁻¹ s⁻¹. Further, in test [2], the Kd amounted to 44 nM, the koff worked out at 0.0013 s⁻¹ and the kon worked out at 29000 M⁻¹ s⁻¹.

B5: NbhMMRm23.30 (VHH)
VHH: QVQLQESGGGLVQAGDSLSISCAASGDTFNHYSWGWFRQAPGKAREFVAAISWNGGSKYADSVKGRFAISRDIAKNTVSLQMNSLEPEDTAVYYCAADRRPYNDWWDDWSWWVYWGQGTQVTVSS
notes: as for B1
In the case of B5, the binding result in test [2] is on record as “no binding (tested: analyte 1 to 2000 nM)”.

B6: NbhmMMRm6.71 (VHH)
VHH: QVQLQESGGGLVQAGGSLRLSCAASGGTFDDSVIGWFRQAPGKEREGVSCISSNDGTTHYASPVKGRFTISSDNAKNTVYLQMNSLKPEDTAVYYCAAETPSIGSPCTSASYDYWGQGTQVTVSS
notes: as for B1
For B6, in test [1], the Kd was 5.6 nM, the koff came to 0.0011 s⁻¹ and the kon stood at 190000 M⁻¹ s⁻¹.

B7: NbhmMMRm24.31 (VHH)
VHH: QVQLQESGGGLVQPGGSLRLSCTATGFTLKNHHIGWLRQAPGKEREGVASINSSGGSTNYADSVQGRFTISRDNAKNTVFLQMNSLKSEDTAVYYCARLRRYYGLNLDPGSYDYWGQGTQVTVSS
notes: as for B1
With B7, in test [1], the dissociation constant (Kd) was 2.7 nM, the koff worked out at 0.00069 s⁻¹ and the kon worked out at 260000 M⁻¹ s⁻¹. In addition, in test [2], the Kd was 74 nM, the koff is 0.0021 s⁻¹ and the on-rate constant (kon) worked out at 28000 M⁻¹ s⁻¹.

B8: NbhmMMRm21.22 (VHH)
VHH: QVQLQESGGGLVQAGGSLRLSCAASGRTFSSAAMGWFRQAPGKEREPVALINLDDGETYYADIAKGRFTLSKDNAKNSVYLQMNSLKPEDTAVYYCAVRGRFDDNYEYWGQGTQVTVSS
notes: Produced from pMECS with C-terminal HA and 6xHis tag; also called NbhMMRm21.22
With B8, in test [1], the Kd came to 3.6 nM, the koff amounted to 0.0012 s⁻¹ and the on-rate (kon) is 340000 M⁻¹ s⁻¹.

B9: NbhmMMRm22.84 (VHH)
VHH: QVQLQESGGGLVQPGGSLRLSCAASGRTFSNYVNYAMGWFRQFPGKEREFVASISWSSVTTYYADSVKGRFTISRDNAKNTVYLQMNSLKPEDTAVYYCAAHLAQYSDYAYRDPHQFGAWGQGTQVTVSS
notes: as for B1
Turning to B9, in test [1], the Kd was determined as 38 nM, the dissociation rate constant (koff) turned out to be 0.0019 s⁻¹ and the association rate constant (kon) is 49000 M⁻¹ s⁻¹. Also, in test [2], the Kd is 130 nM, the koff stood at 0.004 s⁻¹ and the kon turned out to be 30000 M⁻¹ s⁻¹.

B10: NbhmMMRm17.72 (VHH)
VHH: QVQLQESGGGLVQPGGSLRLSCAASGSIVSINAMGWYRQAPGKQRELVALVTGSGRTNLADSVKGRFTISRDNAKNTVYLQMNSLKPEDTAVYYCNVLVIGPLEGYDYWGQGTQVTVSS
notes: as for B1
Take B10: in test [1], the Kd turned out to be 19 nM, the koff is 0.0012 s⁻¹ and the kon stood at 62000 M⁻¹ s⁻¹.

By Kd is commonly meant the constant that tells how readily two partners part at equilibrium. Usually koff stands for the first-order rate constant of dissociation. The term kon denotes the second-order rate constant of association.
